Test results: article PMC5886543, “A staphylococcal anti-sigma factor possesses a single-domain, carries different denaturant-sensitive regions and unfolds via two intermediates” (PLoS ONE, 2018)

Molecular target: the molecule itself
Assay: cross-linking; rRsbW 10 uM in buffer B (20 mM phosphate pH 8.0, 100 mM NaCl, 5% glycerol), 0.1% glutaraldehyde, 2 min, 25 C; SDS-13.5% PAGE; no denaturant

B1: rRsbW, a recombinant S. aureus RsbW (enzyme, Staphylococcus aureus Newman, UniProt A6QIR1 1-159, looked up)
chain: MQSKEDFIEMRVPASAEYVSLIRLTLSGVFSRAGATYDDIEDAKIAVSEAVTNAVKHAYKENNNVGIINIYFEILEDKIKIVISDKGDSFDYETTKSKIGPYDKDENIDFLREGGLGLFLIESLMDEVTVYKESGVTISMTKYIKKEQVRNNGERVEIS
notes: RsbW of Staphylococcus aureus Newman, UniProt A6QIR1; 480 bp insert amplified from genomic DNA with primers rsbWF (begins at the ATG) and rsbWR; native RsbW 17.92 kDa, rRsbW 21.74 kDa. numbers count on: rRsbW with its 36 N-terminal extra residues (RsbW residue 1 is rRsbW residue 37); Surmised: the 36 extra residues are those that pET28a adds before its EcoRI site; also called anti-sigma factor; …
stoichiometry N: 2
